Source: patent US20260166115A1, “POLYUNSATURATED FATTY ACID-BOUND ALPHA FETOPROTEIN PROMOTES IMMUNE SUPPRESSION BY ALTERING HUMAN DENDRITIC CELL METABOLISM” (The Regents of the University of California, priority 2022, published 2026)

Key:
[1] = system: iDCs differentiated from monocytes; assay: Microarray gene expression and g:Profiler pathway analysis of treated DCs; type: cell-based, human
Text: OVA, nAFP, and tAFP-treated DC were lysed, and total mRNA was obtained for microarray (Affymetrix HG-U133A). DE genes were uploaded in g:Profiler in R Studio for pathway analysis and visualization (Raudvere, U. et al. g:Profiler: a web server for functional enrichment analysis and conversions of gene lists (2019 update). Nucleic Acids Res. 47, W191-W198 (2019)).

dendritic cells (DCs) = settings: tAFP-treated DCs; cited from earlier work
mDCs generated in vitro = assay: scMEP single-cell metabolic regulome profiling by CyTOF; type: cell-based, human
Protocol: scMEP analysis was performed as recently described (Hartmann et al., 2021). In short, antibodies targeting metabolic features were conjugated in-house using an optimized conjugation protocol (Hartmann et al., 2019) and validated on multiple sample types. Cells were prepared for scMEP analysis by incubation with small molecules to be able to assess biosynthesis rates of DNA, RNA and protein, cisplatin-based live/dead staining, PFA-based cell fixation and cryopreservation (dx.doi.org/10.17504/protocols.io.bkwkkxcw). Next, cells were stained with metabolic antibodies in a procedure that includes surface staining for 30 min at RT, PFA-fixation for 10 min at RT, MeOH-based permeabilization for 10 min on ice, intracellular staining for 1 h at RT and DNA intercalation (dx.doi.org/10.17504/protocols.io.bntnmeme). Finally, cells were acquired on a CyTOF2 mass cytometer (Fluidigm). Protein targets and antibody information used in scMEP are listed in supplementary table 2. Raw mass spectrometry data were pre-processed, de-barcoded and imported into R environment using the flowCore package (version 2.0.1) (Hahne et al., 2009). Values were arcsin h transformed (cofactor 5) and normalized (Hartmann et al., 2021) for downstream analyses based on previously reported workflow (Nowicka et al., 2017).

[2] = system: monocyte-derived dendritic cells (DCs); assay: SCENITH single-cell energetic metabolism profiling of treated DCs; type: cell-based, human; settings: mDC HLA-DR+, CD206+, CD86+
Text: (§1) DCs were differentiated in vitro similarly as previously described (Pardee, A. D., Shi, J. & Butterfield, L. H. Tumor-Derived α-Fetoprotein Impairs the Differentiation and T Cell Stimulatory Activity of Human Dendritic Cells. J Immunol. 193, 5723-5732 (2014)). In brief, cryopreserved PBMC were thawed and CD14*monocytes were magnetically labeled using CD14 MicroBeads (Miltenyi, Cat #130-050-201) and isolated by LS columns (Miltenyi, Cat #130-042-401) per the manufacturer instructions. Viable eluted cells were enumerated using trypan blue on a Nexcelom Cellometer Spectrum. To generate iDCs, monocytes were stimulated for 5 days in the presence of 800 IU/mL of rGM-CSF (Miltenyi, Cat #130-093-862) and 500 IU/mL of rIL-4 (Miltenyi, Cat #130-095-373) as well as OVA, nAFP, or tAFP in CellGenix® GMP DC media (Cat #20801-0500) 37° C. at 5% CO2. Lastly, we performed an additional 24-hour stimulation with 1000 IU/mL of rIFN-γ (Peprotech, Cat #300-02) and 250 ng/mL of LPS (Sigma Aldrich, Cat #L2630-10MG) to produce mDCs. To harvest cells, DC were detached using TrypLE™ Select (Gibco, Cat #12563011) for 15 minutes at 37° C. and then washed several times with cold PBS.
(§2) SCENITH was performed as described in (Arguello et al., 2020). SCENITH™ reagents kit (inhibitors, puromycin and antibodies) were obtained from www.scenith.com/try-it and used according to the provided protocol for in-vitro derived myeloid cells. Briefly, control and tol-moDC cultures at desired timepoints, were treated for 18 minutes with Control (DMSO), 2-Deoxy-Glucose (2-DG; 100 mM), Oligomycin (0; 1 μM), a combination of 2DG and Oligomycin (DGO) or Harringtonine (H; 2 μg/mL). Following metabolic inhibitors, Puromycin (final concentration 10 μg/mL) was added to cultures for 17 min. After puromycin treatment, cells were detached from wells using TypLE Select (Fisher Scientific, 505914419), washed in cold PBS and stained with a combination of Human TureStain FcX (Biolegend, 422301) and fluorescent cell viability dye (Biolegend, 423105) for 10 min 4° C. in PBS. Following PBS wash step, primary antibodies against surface markers were incubated for 25 min at 4° C. in Brilliant Stain Buffer (BD Biosciences, 563794). Next cells were fixed and permeabilized using True-Nuclear Transcription Factor Buffer Set (Biolegend, 424401) as per manufacturer instructions. Intracellular staining of puromycin and protein targets was performed for 1 h in diluted (10×) permeabilization buffer at 4° C. Finally, data acquisition was performed using the Cytek Aurora flow cytometer. Primary conjugated antibody information used in SCENITH panel is listed in supplementary table 1. All antibodies were titrated to reduce spillover and increase resolution using single stained moDC (generated as described above) samples. Unstained cell controls used for autofluorescence extraction were generated for each time point, culture conditions (control, vitd3-tol-moDC and dexa-vitd3-tol-moDC) and metabolic inhibitor treatments (C, 2DG, O, DGO). Samples were unmixed using reference controls generated in combination with stained Ultracomp beads (Fisher Scientific, 01-2222-41) and stained cells using the SpectroFlo Software v2.2.0.1. The unmixed FCS files were used for data processing and analysis using FlowJo (BD, version 10.7.1). Manually gated CD14-HLA-DR*CD86+ cells were used for downstream analysis. gMFI expression values were imported into R environment for correlation and heatmap analysis using the below described R packages.

[3] = system: monocyte-derived dendritic cells (DCs); assay: Flow cytometry phenotype of in vitro differentiated DCs treated with OVA, nAFP or tAFP; type: cell-based, human
Text: as §1, §2

[4] = system: monocyte-derived dendritic cells (DCs); assay: Glucose and lactate measurements in DC cultures; type: cell-based, human
Text: as §1
Glucose and lactate were measured by applying approximately 5 μL of supernatant to Clarity BG1000 Blood Glucose strips (Cat #75840-798) and meter (Cat #75840-800) system or the Lactate Plus strips (Nova Biomedical©, Cat #40813) and meter version 2 (Nova Biomedical©, Cat #62624) system. Each meter was quality checked with control glucose and lactate solutions and CellGenix™ media before each experiment.

iDCs = assay: Intracellular Zn measurement by flow cytometry; type: cell-based, human; settings: P=0.0293 vs nAFP, P=0.0228 vs OVA
Protocol: Intracellular Zn was quantified by flow cytometry using the Zinc Assay Kit (Cell-based) (Abcam, Cat #ab241014). Monocytes were differentiated to iDCs as described above in the presence of OVA, nAFP, tAFP, or ZnSO4. […] Cells were stained with LD Aqua for 10 minutes at RT. Cells were washed in 1× Assay Buffer, then stained in 100 μL of Assay Buffer+0.2 μL of Zn Probe for 30 minutes at 37° C. Cells were then washed twice with 1× Assay buffer then stained with HLA-DR-APC-H7 (BD, Clone: GF6-6, Cat #561358, Lot #0023290, 0339025), CD86-BV785 (BioLegend, Clone: IT2.2, Cat #305441, Lot #B277560), CD206 PE-Cy7 (Biolegend, Clone: 15-2, Cat #321123, Lot #B331254), and CD14-BUV805 (BD, Clone: M5E2, Cat #612903, Lot #0297714), in Brilliant Stain Buffer (BD Horizon, Cat #566349, Lot #0121427) for 20 minutes at 4° C. Cells were washed twice in FACS Buffer and fixed in 1% paraformaldehyde (Thermo Scientific, Cat #J19943-K2, Lot #195273, diluted in PBS) for at least 30 minutes before acquisition on a BD LSRFortessam X-50.

B1: tAFP: tumor-derived alpha fetoprotein, SEQ ID NO: 1; commercially available (Bio-Rad) (protein, listed as Homo sapiens)
chain: MKWVESIFLIFLLNFTESRTLHRNEYGIASILDSYQCTAEISLADLATIFFAQFVQEATYKEVSKMVKDALTAIEKPTGDEQSSGCLENQLPAFLEELCHEKEILEKYGHSDCCSQSEEGRHNCFLAHKKPTPASIPLFQVPEPVTSCEAYEEDRETFMNKFIYEIARRHPFLYAPTILLWAARYDKIIPSCCKAENAVECFQTKAATVTKELRESSLLNQHACAVMKNFGTRTFQAITVTKLSQKFTKVNFTEIQKLVLDVAHVHEHCCRGDVLDCLQDGEKIMSYICSQQDTLSNKITECCKLTTLERGQCIIHAENDEKPEGLSPNLNRFLGDRDFNQFSSGEKNIFLASFVHEYSRRHPQLAVSVILRVAKGYQELLEKCFQTENPLECQDKGEEELQKYIQESQALAKRSCGLFQKLGEYYLQNAFLVAYTKKAPQLTSSELMAITRKMAATAATCCQLSEDKLLACGEGAADIIIGHLCIRHEMTPVNPGVGQCCTSSYANRRPCFSSLVVDETYVPPAFSDDKFIFHKDLCQAQGVALQTMKQEFLINLVKQKPQITEEQLEAVIADFSGLLEKCCQGQEQEVCFAEEGQKLISKTRAALGV
[1]
  ACS gene: did not reach statistical significance
  SLC2A3 (GLUT3) gene expression: increase
  gene expression of CPT1A: increased
  genes involved in fatty acid metabolism (PDH, ACLY, ACC, FASN, LPL, CD36, CACT): downregulation
[1]; tAFP compared to nAFP
  pathways associated with lipid metabolism: significantly downregulated
  upregulated gene pathways: stress response to metal ions, particularly zinc
Dendritic cells (DCs)
  mitochondrial mass: decreased
mDCs generated in vitro
  ASCT2: unchanged
  ETC/TCA parameters ATP5A, CS and SDHA: lower
  GLS: tended to be lower
  amino acid pathway proteins CD98 and G6PD: significantly decreased
  expression of DC markers CD206, PD-L1, CD11b, CD1c, HLA-DR, CD86 and CD11c: reduced expression
  glycolysis proteins (GLUT1, GLUT3, LDHA, ENO1, GAPDH, and MTC1): modest differences that were not statistically significant
  levels of cytochrome C (CytC): elevated
mDCs generated in vitro; mDCs
  FAO or FAS proteins CD36, CDPT1A, HADHA, and ACLY: decreased
[2]
  fatty acid and glutaminolysis (FAAO) (SCENITH): reduction
  glycolysis (SCENITH): dramatic increase
  mitochondrial dependency (SCENITH): reduction
[3]
  expression of pAMPK: decreased expression
  expression of the fatty acid transporter CD36: decline
[3]; Boolean analysis
  co-expression of multiple activation markers (HLA-DR, CD206, CD86, ICOSLG/CD275): decreased co-expression
[3]; tAFP-treated DC
  DC CD86 expression: trend for reduced
  DC CD206 expression: limited
  DC HLA-DR expression: limited
[4]
  intracellular glucose: increase
[4]; DC
  glucose uptake: take up more glucose
[4]; day 6
  glucose in the culture supernatants: significantly less
[4]; media of treated DCs, all HDs
  lactate secreted, relative to OVA-treated DCs: approximately twice
iDCs
  increase in Zn MFI compared to nAFP or OVA-treated iDCs: ~30%
